Data from paper doi:10.1101/2024.04.29.591597 (bioRxiv, 2024).

How the values were obtained:
[1] = molecular target: OspC type B (OspCB) used in BLI (Borreliella burgdorferi, OspC type B …, UniProt Q44977); experiment: BLI
[2] = molecular target: native OspC type K (OspCK) on live B. burgdorferi strain 297 (B. burgdorferi (endogenous in strain 297)); experiment: flow cytometry on cells
[3] = molecular target: the molecule itself; experiment: crystal structure

binding result [1] | MFI [2] | Binder | stoichiometry N [3]
no binding | < 35 | human monoclonal antibody B11 IgG1 (antibody, V domains shown) VH: QLQLQESGPGLVKPSQTLSLTCTLSGGSISSTSYYWGWIRQPPGSGLEWIGSMYHSGNTYYKSSLKGRVTISLDTSRTQFSLRLTSVTAADTAVYYCARLGDVFNSAMDVWGQGTTVIVSS VL: EIVMTQSPVTLSVSPGERATLSCRASQSVGNNLAWYQHKPGQAPRLLIYDASTRATGIPGRFSGSGSGTEFTLTISSLQSEDFAVYYCQEYNNWPRYTFGQGAKLEIR | –
– | – | Recombinant Outer surface protein C type A (OspCA), residues 38 to 201, homodimer (domain or fragment, B. burgdorferi B31, UniProt Q07337 38-201, looked up) KGPNLTEISKKITDSNAVLLAVKEVEALLSSIDEIAAKAIGKKIHQNNGLDTENNHNGSLLAGAYAISTLIKQKLDGLKNEGLKEKIDAAKKCSETFTNKLKEKHTDLGKEGVTDADAKEAILKTNGTKTKGAEELGKLFESVEVLSKAAKEMLANSVKELTSP | 2
